Patent publication US20100298225A1, “PEPTIDE GAP JUNCTION MODULATORS” (published 2010)

Columns and labels:
[1] = target: T1, Recombinant Cx43CT (carboxyl terminal domain of connexin43, sequence 255-382 of rCx43 preceded by GPLG) (rat, UniProt P08050); experiment: SPR, Cx43CT immobilised, peptide at 1 mM
Experimental: (§1) Recombinant Cx43CT was covalently bound to a carboxylmethyl dextran matrix (Salamon et al., “Surface Plasmon Resonance Spectroscopy as a Tool for Investigating the Biochemical and Biophysical Properties of Membrane Protein Systems. II: Applications to Biological Systems,” Biochim. Biophys. Acta 1331(2):131-152 (1997), which is hereby incorporated by reference in its entirety). Specific peptides were presented and, when feasible, dissociation constants (KD) were calculated from the time course of binding and unbinding of the ligand, using a 1:1 (Langmuir) association and dissociation kinetic model (Biacore software package). In both phases (association and dissociation), the first 5-8 seconds of recording were not included in the fit, to avoid artifacts resulting from peptide distribution within the flow cells (Lang et al., “Surface Plasmon Resonance as a Method to Study the Kinetics and Amplitude of Protein-protein Binding,” in PRACTICAL METHODS IN CARDIOVASCULAR […] 936-947 (Stefan Dhein, Friedrich Wilhelm Mohr & Mario Delmar eds., 2005), which is hereby incorporated by reference in its entirety).
(§2) The peptides shown in table 2 and 3 were tested for binding to the carboxyl terminal domain (CT) of Cx43 using Surface Plasmon Resonance (“SPR”). SPR is a method that was used to identify the original RXPE sequence (Shibayama et al., “Identification of a Novel Peptide that Interferes with the Chemical Regulation of Connexin-43,” Circ. Res. 98:1365-72 (2006)).

[2] = target: T1, Recombinant Cx43CT (carboxyl terminal …); experiment: SPR, Cx43CT immobilised, peptide at 25 uM
Experimental: as §1, §2

[3] = target: T1, Recombinant Cx43CT (carboxyl terminal …); experiment: SPR, Cx43CT immobilised, peptide at 100 uM
Experimental: as §1, §2

[4] = target: T1, Recombinant Cx43CT (carboxyl terminal …); experiment: SPR, Cx43CT immobilised, peptide at 250 uM
Experimental: as §1, §2

[5] = target: T1, Recombinant Cx43CT (carboxyl terminal …); experiment: SPR, Cx43CT immobilised, peptide at 500 uM
Experimental: as §1, §2

[6] = target: T1, Recombinant Cx43CT (carboxyl terminal …); experiment: SPR, Cx43CT immobilised, peptide at 1 mM, response normalised on Mw
Excerpt: (§3) Biophys. […] Commun. 8(4-6):225-229 (2001); Lang et al., “Surface Plasmon Resonance as a Method to Study the Kinetics and Amplitude of Protein-protein Binding,” in PRACTICAL METHODS IN CARDIOVASCULAR […] 936-947 (Stefan Dhein, Friedrich Wilhelm Mohr & Mario Delmar eds., 2005), which are hereby incorporated by reference in their entirety). Recombinant Cx43CT was covalently bound to a carboxylmethyl dextran matrix (Salamon et al., “Surface Plasmon Resonance Spectroscopy as a Tool for Investigating the Biochemical and Biophysical Properties of Membrane Protein Systems. II: Applications to Biological Systems,” Biochim. Biophys. Acta 1331(2):131-152 (1997), which is hereby incorporated by reference in its entirety). Specific peptides were presented and, when feasible, dissociation constants (KD) were calculated from the time course of binding and unbinding of the ligand, using a 1:1 (Langmuir) association and dissociation kinetic model (Biacore software package). In both phases (association and dissociation), the first 5-8 seconds of recording were not included in the fit, to avoid artifacts resulting from peptide distribution within the flow cells (Lang et al., “Surface Plasmon Resonance as a Method to Study the Kinetics and Amplitude of Protein-protein Binding,” in PRACTICAL METHODS IN CARDIOVASCULAR […] 936-947 (Stefan Dhein, Friedrich Wilhelm Mohr & Mario Delmar eds., 2005), which is hereby incorporated by reference in its entirety).
(§4) The peptides shown in table 2 and 3 were tested for binding to the carboxyl terminal domain (CT) of Cx43 using Surface Plasmon Resonance (“SPR”). SPR is a method that was used to identify the original RXPE sequence (Shibayama et al., “Identification of a Novel Peptide that Interferes with the Chemical Regulation of Connexin-43,” Circ. Res. 98:1365-72 (2006)). The amplitude of the response is also a function of the mass of the ligate, and the normalized data according to the individual peptide Mw's are shown in table 3.

[7] = target: T1, Recombinant Cx43CT (carboxyl terminal …); experiment: SPR, Cx43CT immobilised, peptide at 25 uM, response normalised on Mw
Excerpt: as §3, §4

[8] = target: T1, Recombinant Cx43CT (carboxyl terminal …); experiment: SPR, Cx43CT immobilised, peptide at 100 uM, response normalised on Mw
Excerpt: as §3, §4

[9] = target: T1, Recombinant Cx43CT (carboxyl terminal …); experiment: SPR, Cx43CT immobilised, peptide at 250 uM, response normalised on Mw
Excerpt: as §3, §4

[10] = target: T1, Recombinant Cx43CT (carboxyl terminal …); experiment: SPR, Cx43CT immobilised, peptide at 500 uM, response normalised on Mw
Excerpt: as §3, §4

T1 sequence (P08050 other isoform, or with tags, fused parts or gaps limits assumed): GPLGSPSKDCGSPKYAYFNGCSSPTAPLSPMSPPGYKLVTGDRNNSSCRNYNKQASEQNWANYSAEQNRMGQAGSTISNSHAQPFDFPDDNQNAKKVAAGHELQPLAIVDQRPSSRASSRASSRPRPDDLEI

Row | Binder | SPR respons at 1 mM [1] [arbitrary units] | SPR respons at 25 uM [2] [arbitrary units] | SPR respons at 100 uM [3] [arbitrary units] | SPR respons at 250 uM [4] [arbitrary units] | SPR respons at 500 uM [5] [arbitrary units] | SPR normalised on Mw at 1 mM [6] | SPR normalised on Mw at 25 uM [7] | SPR normalised on Mw at 100 uM [8] | SPR normalised on Mw at 250 uM [9] | SPR normalised on Mw at 500 uM [10]
1 | Ac-RRNYRRNY-NH2 [Compound 2497] | 565 | 30.2 | 84.2 | 202 | 328 | 45.7 (SPRrespons*100)/Mw | 2.4 (SPRrespons*100)/Mw | 6.8 (SPRrespons*100)/Mw | 16.3 (SPRrespons*100)/Mw | 26.5 (SPRrespons*100)/Mw
2 | Ac-RRNYGGSAVPFYSHRRNY-NH2 [Compound 2510] | 1190 | 40.3 | 176 | 332 | 643 | 53 (SPRrespons*100)/Mw | 1.8 (SPRrespons*100)/Mw | 7.9 (SPRrespons*100)/Mw | 14.8 (SPRrespons*100)/Mw | 28.7 (SPRrespons*100)/Mw
3 | Ac-RRNYVPRRNY-NH2 [Compound 2512] | 395 | 14.8 | 50.7 | 117 | 227 | 27.5 (SPRrespons*100)/Mw | 1 (SPRrespons*100)/Mw | 3.5 (SPRrespons*100)/Mw | 8.2 (SPRrespons*100)/Mw | 15.9 (SPRrespons*100)/Mw
4 | Ac-RRNYAVPFRRNY-NH2 [Compound 2511] | 692 | 16.2 | 90.5 | 214 | 390 | 41.9 (SPRrespons*100)/Mw | 1 (SPRrespons*100)/Mw | 5.5 (SPRrespons*100)/Mw | 13 (SPRrespons*100)/Mw | 23.6 (SPRrespons*100)/Mw
5 | Ac-RRNYSHSRRNY-NH2 [Compound 2507] | 703 | 42.3 | 114 | 254 | 438 | 45.4 (SPRrespons*100)/Mw | 2.7 (SPRrespons*100)/Mw | 7.3 (SPRrespons*100)/Mw | 16.4 (SPRrespons*100)/Mw | 28.3 (SPRrespons*100)/Mw
6 | Ac-RRNY-NH2 [Compound 2498] | 91 |  |  |  | 50.9 | 14 (SPRrespons*100)/Mw |  |  |  | 7.9 (SPRrespons*100)/Mw
7 | Ac-RRNYGGGRRNY-NH2 [Compound 2509] | 479 | 21.5 | 62.5 | 148 | 281 | 34 (SPRrespons*100)/Mw | 1.5 (SPRrespons*100)/Mw | 4.4 (SPRrespons*100)/Mw | 10.5 (SPRrespons*100)/Mw | 19.9 (SPRrespons*100)/Mw
8 | Ac-RRNYSAVPFYSHSRRNY-NH2 [Compound 2506] | 1170 | 51.7 | 117 | 327 | 562 | 53 (SPRrespons*100)/Mw | 2.3 (SPRrespons*100)/Mw | 5.3 (SPRrespons*100)/Mw | 14.8 (SPRrespons*100)/Mw | 25.4 (SPRrespons*100)/Mw
9 | Ac-RRNYGGGSAVPFYRRNY-NH2 [Compound 2508] | 1020 | 31.1 | 122 | 285 | 547 | 49.4 (SPRrespons*100)/Mw | 1.5 (SPRrespons*100)/Mw | 5.9 (SPRrespons*100)/Mw | 13.7 (SPRrespons*100)/Mw | 26.4 (SPRrespons*100)/Mw
10 | Ac-YNRR-NH2 [Compound 2499] | 69.4 |  |  |  |  | 10.7 (SPRrespons*100)/Mw |  |  |  | 
11 | Ac-YNRRGGGSAVPFYSHSYNRR-NH2 [Compound 2496] | 1400 | 67.7 | 156 | 358 | 739 | 58.8 (SPRrespons*100)/Mw | 2.8 (SPRrespons*100)/Mw | 6.5 (SPRrespons*100)/Mw | 15 (SPRrespons*100)/Mw | 31 (SPRrespons*100)/Mw
